Here are results for four substances from US20240018206A1.

The test concerns the target IL-1 receptor (IL-1R1) on A375.s2 cells (UniProt P14778). The test can be described thus: cell-based or functional assay.
Chain of UniProt P14778 (P14778 18-569 limits assumed): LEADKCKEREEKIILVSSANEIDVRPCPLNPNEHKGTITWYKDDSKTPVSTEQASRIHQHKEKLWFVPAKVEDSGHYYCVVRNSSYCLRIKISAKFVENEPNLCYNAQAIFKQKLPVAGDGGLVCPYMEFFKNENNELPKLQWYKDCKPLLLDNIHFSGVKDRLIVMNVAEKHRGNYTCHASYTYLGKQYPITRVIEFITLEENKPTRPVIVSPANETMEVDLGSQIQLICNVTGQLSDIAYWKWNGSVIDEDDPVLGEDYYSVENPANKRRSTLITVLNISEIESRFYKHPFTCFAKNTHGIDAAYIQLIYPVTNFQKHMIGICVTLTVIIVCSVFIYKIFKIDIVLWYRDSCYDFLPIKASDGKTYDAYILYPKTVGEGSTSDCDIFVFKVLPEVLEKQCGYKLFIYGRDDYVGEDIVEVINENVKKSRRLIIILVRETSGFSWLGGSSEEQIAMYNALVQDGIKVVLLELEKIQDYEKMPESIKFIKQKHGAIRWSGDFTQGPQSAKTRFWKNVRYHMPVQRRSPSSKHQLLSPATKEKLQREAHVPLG

As for “IL-1RN D74N-Fc without linker (from UniProt P18510 26-177) (Fc fusion)”, the IC50(µg/ml), inhibition of IL-1β induced A375.s2 apoptosis (MTS, 490 nM) turned out to be 4.85 µg/mL and the biological activity relative to the wild type amounted to 3 fold.
On to “IL-1RN-Fc, single-target comparator of Table 4 (from UniProt P18510 26-177) (Fc fusion)”, for which the IL1RN activity IC50 was determined as 0.333 µg/mL.
On the same count and under the same terms, the figure for “IL-1RN-TNFR2-Fc dual-target fusion protein (IL-1RN D74N, TNFR2, hIgG4 Fc S228P) (Fc fusion)” is 0.714 µg/mL.
“Wild-type IL-1RN-Fc of Table 2 (from UniProt P18510 26-177) (Fc fusion)” had an IC50(µg/ml), inhibition of IL-1β induced A375.s2 apoptosis (MTS, 490 nM) of 12.1 µg/mL.
